Experiment [1] relates to NIH3T3 (mouse fibroblast cell line). As to the kind of experiment: Cell growth assay with NIH3T3 (Cell Titer Glo luminescence). The experiment is classed as cell-based. As for the experimental part: As a cell for measuring a cell growth activity, NIH3T3 (mouse fibroblast cell line) was obtained from ECACC through a domestic agent. The cell which was subjected to extended culture according to an ordinary method, and then freeze-preserved at −80° C. using CellBankeR1 plus (manufactured by Xenoac Co., Ltd.) was used. […]
The cell growth assay for FGF2 was performed according to the following procedure. […] The plate was further left to stand for 8 minutes, and then the luminescence in each well was measured with a Synergy HTX plate reader (manufactured by BioTek) with a sensitivity set (Gain) of 200 and a measurement time of 1 s/well.
The measurement was performed at three points at each concentration of the test substance, for the measurement at a single concentration, 100 ng/ml of FGF2 was used as a positive control and a condition of no addition was used as a negative control, and the VHH monomer was prepared with uniform 100-fold dilution, and measured. […] EC50 measurement data were obtained according to an ordinary method using a control software attached to a plate reader. The EC50 value was calculated by applying the 4-parameter fit.
Each stock of the VHH monomer (Clone #1: 2.65 mg/mL; Clone #2: 0.82 mg/mL-PBS) was diluted 100-fold to check the presence or absence of the cell growth activity. […] The vertical axis in FIG. 15 indicates a relative luminescence amount. […]
In general terms: In ATP-based viability assays light output follows the ATP content of the culture.

Experiment [2] deals with phospho-p44/42 MAPK (Erk½). Put plainly: Agonist activity by Western blotting in NIH3T3 cells. The experiment is classed as cell-based, mouse. To be noted: VHH 100 nM, 30 minutes. The protocol: In order to verify the agonist activity for VHH-C(represented by #1_C in the drawing), #1-L4-#1, and #1_Fc, which were obtained in Examples above, the measurement was performed as described below using Western blotting for a change in expression level of Phospho-p44/42 MAPK (Erk½). Furthermore, a basic fibroblast growth factor (bFGF; manufactured by Fujifilm Wako Pure Chemical Corporation) was used as a positive control.
As NIH3T3, those described in Example 7 were used. NIH3T3 cells were seeded on a 6-well plate for cell culture at 2× 10^5 cells/well, and culture was performed overnight (37° C., in a 5% CO2 incubator, with light shielded). After washing with a serum-free medium, bFGF (final concentration: 10 ng/mL) or VHH (final concentration: 100 nM) diluted with the serum-free medium was added thereto, and normal culture was performed for 30 minutes. Thereafter, the well was washed with ice-cooled PBS, and the cells were peeled off with a cell scraper, transferred to a tube, and centrifuged at 300×g for 5 minutes at 4° C. to recover the cells. Thereafter, the cells were solubilized with a phosphatase inhibitor-containing RIPA buffer and left to stand on ice for 30 minutes. After the solubilization reaction, centrifugation was performed at 12,000×g for 15 minutes at 4° C. to recover the supernatant. […]
(A western blot detects proteins with antibodies after separation by electrophoresis.)

For the next experiment, the system named is FGFR2-Fc. Put plainly: SPR affinity of VHH (monomer) for FGFR2-Fc. The experiment is classed as binding, human. To be noted: same manner as Example 5. As for the experimental part:
The binding activity of VHH Clone #1 or VHH Clone #2 immobilized on Series S Sensor Chip CAP (manufactured by Cytiva) with respect to FGFR1-Fc was measured using Biacore (registered trademark) T200 (manufactured by Cytiva). Measurement was performed by CAP Single-cycle Kinetics. The temperature was set to 25° C. As a running buffer, 10 mM HEPES (pH 7.4) (Cytiva) including HBS-EP+(150 mM NaCl, 0.5 mM EDTA, and 0.05% surfactant P20) was used. The measurement order for each run is as follows.
2) Measurement of binding activity: The flow rate was set to 30 μL/mL, and VHH Clone #1 or VHH Clone #2 each diluted to 1.85 nM, 5.56 nM, 16.67 nM, or 50 nM, using a running buffer, was allowed to have an association time set to 120 seconds for binding and a dissociation time set to 600 seconds for interaction.
3) Regeneration of sensor chip surface: The flow rate was set to 10 μL/mL, a solution in which Reaneration stock 1 and Regeneration stock 2 (manufactured by Cytiva) were mixed at the ratio of 3:1 was added thereto for 120 seconds to extract the immobilized VHH. Next, analysis was performed with a 1:1 binding model using Biacore T200 Evaluation (software version 2.0, manufactured by Cytiva), and the binding activity was calculated.
The binding activity of VHH Clone #1 to FGFR2-Fc, FGFR3-Fc, or FGFR4-Fc was measured in the same manner as in Example 5.

B1: VHH Clone #2: alpaca-derived VHH single-domain antibody (monomer) binding FGFR1, amino acid sequence SEQ ID NO: 18 (protein)
VHH: QVQLVESGGGLVQAGGSLRLSCAVPGSIFRFNTMGWYRQPPGKQRELVAQMSRGGITKYGDSVKGRFTITRDNAKNTVHLQMNSLKPEDTAVYYCAGSYYSGSYYYPSPQGFSVWGQGTQVTVSP
modifications: VHH_Clone_#2
With B1, the “cell growth activity (relative luminescence amount, RLU)” value in experiment [1] (NIH3T3, serum-free, 2 days, 4-fold dilution series, compared with FGF2) is on record as “relative luminescence amount was low even at a high concentration”. In addition, the “cell growth activity of VHH monomer (relative luminescence amount)” value in experiment [1] (NIH3T3, stock diluted 100-fold (Clone #2: 8.20 μg/mL)) is on record as “significantly exhibited a cell growth activity”.

B2: #1-L4-#1: dimer of VHH #1 with linker L4 (GSEGKSSGSGSESKST), SEQ ID NO: 23 (protein)
VHH: QLQLVESGGGSVQAGGSLRLSCAASRSLSRFNVWTWYRQAPVKQRELVASITKSGDTNYAESVKGRFIISRDDDKNTVYLQMNNLKSEDTGIYYCAGSYYSGSYLYPSPGGFSVWGQGTQVTVSSGSEGKSSGSGSESKSTQLQLVESGGGSVQAGGSLRLSCAASRSLSRFNVWTWYRQAPVKQRELVASITKSGDTNYAESVKGRFIISRDDDKNTVYLQMNNLKSEDTGIYYCAGSYYSGSYLYPSPGGFSVWGQGTQVTVSS
modifications: #1-L4-#1
For B2, the “agonist activity (expression of phosphorylated p44/42 MAPK (Erk½))” value in experiment [2] is on record as “exhibit an agonist activity”.

B3: VHH Clone #1: alpaca-derived VHH single-domain antibody (monomer) binding FGFR1, amino acid sequence SEQ ID NO: 17 (protein)
VHH: QLQLVESGGGSVQAGGSLRLSCAASRSLSRFNVWTWYRQAPVKQRELVASITKSGDTNYAESVKGRFIISRDDDKNTVYLQMNNLKSEDTGIYYCAGSYYSGSYLYPSPGGFSVWGQGTQVTVSS
modifications: VHH_Clone_#1
In the experiment with FGFR2-Fc, B3 came in with a ka of 484000 M⁻¹ s⁻¹ and a kd of 0.776 s⁻¹.

Source of the values: patent US20240279618A1, “RECEPTOR TYROSINE KINASE AGONIST, COMPOSITION FOR CELL CULTURE MEDIUM, AND […] MAINTENANCE COMPOSITION” (SEKISUI CHEMICAL CO., LTD., priority 2021, published 2024).
